Eleven molecules from publication PMC10368727, “Sequestration of histidine kinases by non-cognate response regulators establishes a threshold level of stimulation for bacterial two-component signaling” (Nature Communications, 2023) can be followed below.

The labels stand for the following.
B2: GFP-tagged MtrB, unphosphorylated (cytosolic catalytic domain) (domain or fragment)
chain: SRQVVVPVRSASRIAERFAEGHLSERMPVRGEDDMARLAVSFNDMAESLSRQIAQLEEFGNLQRRFTSDVSHELRTPLTTVRMAADLIYDHSADLDPTLRRSTELMVSELDRFETLLNDLLEISRHDAGVAELSVEAVDLRTTVNNALGNVGHLAEEAGIELLVDLPAEQVIAEVDARRVERILRNLIANAIDHAEHKPVRIRMAADEDTVAVTVRDYGVGLRPGEEKLVFSRFWRSDPSRVRRSGGTGLGLAISVEDARLHQGRLEAWGEPGEGACFRLTLPMVRGHKVTTSPLPMKPIPQPVLQPVAQPNPQPMPPEYKERQRPREHAEWSG
notes: also called MtrB-GFP
B3: phosphorylated, GFP-tagged HK MtrB (cytosolic catalytic domain) (domain or fragment)
chain: SRQVVVPVRSASRIAERFAEGHLSERMPVRGEDDMARLAVSFNDMAESLSRQIAQLEEFGNLQRRFTSDVSHELRTPLTTVRMAADLIYDHSADLDPTLRRSTELMVSELDRFETLLNDLLEISRHDAGVAELSVEAVDLRTTVNNALGNVGHLAEEAGIELLVDLPAEQVIAEVDARRVERILRNLIANAIDHAEHKPVRIRMAADEDTVAVTVRDYGVGLRPGEEKLVFSRFWRSDPSRVRRSGGTGLGLAISVEDARLHQGRLEAWGEPGEGACFRLTLPMVRGHKVTTSPLPMKPIPQPVLQPVAQPNPQPMPPEYKERQRPREHAEWSG
notes: also called MtrB~P; P~MtrB-GFP
B7: phosphorylated, GFP-tagged HK PhoR (cytosolic catalytic domain) (domain or fragment)
chain: RRSLRPLAEFEQTAAAIGAGQLDRRVPQWHPRTEVGRLSLALNGMLAQIQRAVASAESSAEKARDSEDRMRQFITDASHELRTPLTTIRGFAELYRQGAARDVGMLLSRIESEASRMGLLVDDLLLLARLDAHRPLELCRVDLLALASDAAHDARAMDPKRRITLEVLDGPGTPEVLGDESRLRQVLRNLVANAIQHTPESADVTVRVGTEGDDAILEVADDGPGMSQEDALRVFERFYRADSSRARASGGTGLGLSIVDSLVAAHGGAVTVTTALGEGCCFRVSLPRVSDVDQLSLTPVVPGPP
notes: also called PhoR-GFP; PhoR~P
B9: response regulator NarL (natural protein)
chain: MSNPQPEKVRVVVGDDHPLFREGVVRALSLSGSVNVVGEADDGAAALELIKAHLPDVALLDYRMPGMDGAQVAAAVRSYELPTRVLLISAHDEPAIVYQALQQGAAGFLLKDSTRTEIVKAVLDCAKGRDVVAPSLVGGLAGEIRQRAAPVAPVLSAREREVLNRIACGQSIPAIAAELYVAPSTVKTHVQRLYEKLGVSDRAAAVAEAMRQRLLD
notes: also called non-cognate RR NarL

Read-outs that look alike come from different tables or passages of the source.

Holding throughout (conditions): both partners purified
The target in assay [1] is B3. In words: MST.
For assay [2], the target named is B2. Nature of the assay: MST; GFP-tagged MtrB in the unphosphorylated state titrated with RR.
Assay [3] has as its target T1, response regulator PhoP (M. tuberculosis, UniProt P71814 1-247). Described as above.
The target of assay [4] is T1, response regulator PhoP.
Assay [5] has as its target T2, phosphorylated, histidine tag labeled HK KdpD (cytosolic catalytic domain) (M. tuberculosis, UniProt P9WGL3 532-860).
T2 construct: also called KdpD~P
T2 sequence: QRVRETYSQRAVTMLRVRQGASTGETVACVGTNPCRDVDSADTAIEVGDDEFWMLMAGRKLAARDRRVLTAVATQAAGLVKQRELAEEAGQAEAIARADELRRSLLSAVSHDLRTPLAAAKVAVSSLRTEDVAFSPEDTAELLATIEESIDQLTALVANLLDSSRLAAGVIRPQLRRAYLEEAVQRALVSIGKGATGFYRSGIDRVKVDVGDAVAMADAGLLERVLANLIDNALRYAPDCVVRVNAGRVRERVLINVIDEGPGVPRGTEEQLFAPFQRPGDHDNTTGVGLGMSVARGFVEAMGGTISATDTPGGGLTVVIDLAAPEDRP
In words: MST.

In assay [6] the target is B7.
Assay [7] concerns the target T3, phosphorylated, histidine tag labeled HK PrrB (cytosolic catalytic domain) (M. tuberculosis, UniProt P9WGK7 172-446).
T3 construct: also called PrrB~P
T3 sequence: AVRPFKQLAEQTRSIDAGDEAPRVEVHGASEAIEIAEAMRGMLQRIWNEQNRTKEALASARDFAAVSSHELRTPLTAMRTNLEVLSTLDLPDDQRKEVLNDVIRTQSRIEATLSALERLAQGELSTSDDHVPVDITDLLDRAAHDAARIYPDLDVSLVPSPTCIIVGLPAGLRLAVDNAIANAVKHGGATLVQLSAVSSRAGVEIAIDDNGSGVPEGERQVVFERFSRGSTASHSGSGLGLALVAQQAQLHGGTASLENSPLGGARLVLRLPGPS
Nature of the assay: MST.

In the assay “response regulator NarL” the target is B9. Nature of the assay: MST.
For a further assay, the target named is response regulator DevR (M. tuberculosis, UniProt P9WMF9 1-217). In words: MST.
Chain of response regulator DevR (P9WMF9 whole entry): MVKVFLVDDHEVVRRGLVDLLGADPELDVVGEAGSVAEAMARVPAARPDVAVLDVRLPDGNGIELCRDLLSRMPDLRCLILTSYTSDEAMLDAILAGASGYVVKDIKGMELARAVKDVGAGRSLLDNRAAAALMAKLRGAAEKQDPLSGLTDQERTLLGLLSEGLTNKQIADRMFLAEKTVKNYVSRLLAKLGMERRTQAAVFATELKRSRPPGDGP

B1: response regulator MtrA (natural protein)
chain: MDTMRQRILVVDDDASLAEMLTIVLRGEGFDTAVIGDGTQALTAVRELRPDLVLLDLMLPGMNGIDVCRVLRADSGVPIVMLTAKTDTVDVVLGLESGADDYIMKPFKPKELVARVRARLRRNDDEPAEMLSIADVEIDVPAHKVTRNGEQISLTPLEFDLLVALARKPRQVFTRDVLLEQVWGYRHPADTRLVNVHVQRLRAKVEKDPENPTVVLTVRGVGYKAGPP
notes: also called cognate RR MtrA
What is called Kd is the equilibrium constant for the complex coming apart. A low value points to a tighter complex. In the case of B1, the Kd is 444 ± 117 nM in assay [1] and 936 ± 113 nM in [2].

B2 returned a Kd with response regulator PhoP [3] of 18100 ± 2740 nM. As to B3, in the assay with response regulator PhoP [4], the Kd worked out at 3580 ± 121 nM.

B4: response regulator KdpE (natural protein)
chain: MTLVLVIDDEPQILRALRINLTVRGYQVITASTGAGALRAAAEHPPDVVILDLGLPDMSGIDVLGGLRGWLTAPVIVLSARTDSSDKVQALDAGADDYVTKPFGMDEFLARLRAAVRRNTAAAELEQPVIETDSFTVDLAGKKVIKDGAEVHLTPTEWGMLEMLARNRGKLVGRGELLKEVWGPAYATETHYLRVYLAQLRRKLEDDPSHPKHLLTESGMGYRFEA
B4: the Kd was 868 ± 100 nM in [1] and 4490 nM in assay [5].

B5: response regulator TcrX (natural protein)
chain: MRRADGQPVTVLVVDDEPVLAEMVSMALRYEGWNITTAGDGSSAIAAARRQRPDVVVLDVMLPDMSGLDVLHKLRSENPGLPVLLLTAKDAVEDRIAGLTAGGDDYVTKPFSIEEVVLRLRALLRRTGVTTVDSGAQLVVGDLVLDEDSHEVMRAGEPVSLTSTEFELLRFMMHNSKRVLSKAQILDRVWSYDFGGRSNIVELYISYLRKKIDNGREPMIHTLRGAGYVLKPAR
For B5, the figures for the Kd in [6], in [1] and in assay [2] were 484 nM, 82 ± 12 nM and 21700 ± 5020 nM, respectively.

B6: response regulator TcrA (natural protein)
chain: MADETTMRAGRGPGRACGRVSGVRILVVEDEPKMTALLARALTEEGHTVDTVADGRHAVAAVDGGDYDAVVLDVMLPGIDGFEVCARLRRQRVWTPVLMLTARGAVTDRIAGLDGGADDYLTKPFNLDELFARLRALSRRGPIPRPPTLEAGDLRLDPSEHRVWRADTEIRLSHKEFTLLEALIRRPGIVHTRAQLLERCWDAAYEARSNIVDVYIRYLRDKIDRPFGVTSLETIRGAGYRLRKDGGRHALPR
For B6, the dissociation constant Kd in [6] amounted to 1830 nM; in [1] it was 3070 ± 74 nM. With B7, binding with response regulator PhoP [4] was characterised by a dissociation constant (Kd) of 1480 nM.

B8: response regulator MprA (natural protein)
chain: MSVRILVVDDDRAVRESLRRSLSFNGYSVELAHDGVEALDMIASDRPDALVLDVMMPRLDGLEVCRQLRGTGDDLPILVLTARDSVSERVAGLDAGADDYLPKPFALEELLARMRALLRRTKPEDAAESMAMRFSDLTLDPVTREVNRGQRRISLTRTEFALLEMLIANPRRVLTRSRILEEVWGFDFPTSGNALEVYVGYLRRKTEADGEPRLIHTVRGVGYVLRETPP
In [7], B8 showed a Kd of 1960 nM.

Regarding B9, the figures for the dissociation constant Kd in assay [1], in assay [5] and in [2] were 83 ± 15 nM, 355 nM and 402 ± 58 nM, respectively.

B10: phosphorylated, histidine tag labeled HK DevS (cytosolic catalytic domain) (domain or fragment)
chain: LATSQRRMRELDVLTDRDRIARDLHDHVIQRLFAIGLALQGAVPHERNPEVQQRLSDVVDDLQDVIQEIRTTIYDLHGASQGITRLRQRIDAAVAQFADSGLRTSVQFVGPLSVVDSALADQAEAVVREAVSNAVRHAKASTLTVRVKVDDDLCIEVTDNGRGLPDEFTGSGLTNLRQRAEQAGGEFTLASVPGASGTVLRWSAPLSQ
notes: also called DevS~P
For the molecule B10, the values for the Kd in the assay with response regulator NarL and in the assay with response regulator DevR were 325 nM and 13200 nM, respectively.

B11: response regulator PrrA (natural protein)
chain: MDTGVTSPRVLVVDDDSDVLASLERGLRLSGFEVATAVDGAEALRSATENRPDAIVLDINMPVLDGVSVVTALRAMDNDVPVCVLSARSSVDDRVAGLEAGADDYLVKPFVLAELVARVKALLRRRGSTATSSSETITVGPLEVDIPGRRARVNGVDVDLTKREFDLLAVLAEHKTAVLSRAQLLELVWGYDFAADTNVVDVFIGYLRRKLEAGGGPRLLHTVRGVGFVLRMQ
For B11, the Kd in assay [7] was determined as 4310 nM.
